Holding throughout (assay): cell-based or functional assay
Test [1] has as its target human CCR6 (human) (UniProt P51684).
Test [2] has as its target recombinant mouse CCL20 (mouse) (UniProt O89093).
Test [3] concerns the target recombinant human CCL20 (human) (UniProt P78556).
UniProt P78556, sequence (P78556 27-96 limits assumed): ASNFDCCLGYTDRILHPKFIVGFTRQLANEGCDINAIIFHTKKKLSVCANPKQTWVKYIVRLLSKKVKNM

UniProt P51684, sequence (P51684 whole entry): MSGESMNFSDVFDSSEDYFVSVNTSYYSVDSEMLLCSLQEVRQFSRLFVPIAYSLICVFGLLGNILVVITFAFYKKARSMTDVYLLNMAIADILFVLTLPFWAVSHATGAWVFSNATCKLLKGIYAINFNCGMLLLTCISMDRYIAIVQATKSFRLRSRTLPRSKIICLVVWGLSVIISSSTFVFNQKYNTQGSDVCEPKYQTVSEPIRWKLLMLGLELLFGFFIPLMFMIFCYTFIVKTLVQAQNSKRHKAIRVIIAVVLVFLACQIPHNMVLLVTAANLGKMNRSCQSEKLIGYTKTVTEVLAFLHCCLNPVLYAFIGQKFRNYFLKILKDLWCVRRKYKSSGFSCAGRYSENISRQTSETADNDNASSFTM
UniProt O89093, sequence (O89093 28-97 limits assumed): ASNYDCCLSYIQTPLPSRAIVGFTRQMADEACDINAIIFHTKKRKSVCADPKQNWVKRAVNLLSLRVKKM

In turn, “recombinant human CCL20 (from UniProt P78556 27-96) (ligand)” returned an expression of NANOG, BMI1, OCT3/4 and SOX2 in CCR6+ against CCR6- NCIH508 cells after 48 hours with 100 pg/mL CCL20 in test [1] of 2 fold.
Regarding “anti-mouse CCL20 monoclonal antibody (clone 114908; R&D Systems)”, the IC50, beta-arrestin translocation assay (CHO-K1 cells overexpressing mouse CCR6, stimulated with 1.2 nM mouse CCL20) in test [2] was 14 nM.
Take “neutralizing monoclonal antibody against human CCL20 (clone 67310; R&D Systems)”: in test [3], the IC50, beta-arrestin translocation assay (CHO-K1 cells overexpressing human CCR6, stimulated with 6 nM CCL20) is 2.7 nM and the IC50, cAMP assay (Ad293 cells overexpressing human CCR6, stimulated with 1 nM CCL20) turned out to be 0.8 nM.

For the origin of these results see patent US20210380673A1.
